# B1: Rnd1 (residues 5-200) (enzyme, human, UniProt Q92730 5-200, looked up)
# chain: RAPQPVVARCKLVLVGDVQCGKTAMLQVLAKDCYPETYVPTVFENYTACLETEEQRVELSLWDTSGSPYYDNVRPLCYSDSDAVLLCFDISRPETVDSALKKWRTEILDYCPSTRVLLIGCKTDLRTDLSTLMELSHQKQAPISYEQGCAIAKQLGAEIYLEGSAFTSEKSIHSIFRTASMLCLNKPSPLPQKSPV
# notes: human Rnd1, residues 5-200; source: E. coli BL21 Star, purified
# Experiments:
# [1] = target: Plexin-B1_(cyto) (entire cytoplasmic domain of human Plexin-B1, residues 1511-2135) (human) (UniProt O43157); test: crystal structure; Plexin-B1_(cyto) and Rac1* mixed 1:1.2; 1 M Li2SO4, 0.5 M ammonium sulphate, 0.1 M citrate pH 5.6; 4.4 Å; three complexes in the asymmetric unit
# Plexin-B1Δ2 Leu1815Glu [2] = target: T1, Plexin-B1Δ2 Leu1815Glu (human, UniProt O43157-1 1543-2135, Leu1815Glu, biotin, added enzymatically within the engineered C-terminal tag); test: SPR; as a1, high coupling density: 5,000 RU of the plexin construct loaded on the chip; RhoGTPase 120 nM to 2,000 µM; details: both partners purified
# T1 construct: human Plexin-B1, cytoplasmic region lacking the N-terminal helix, residues 1543-2135; also called site A Plexin-B1Δ2 mutant Leu1815Glu^Plex; source: HEK 293T cells, transfected, purified; not shown: engineered tag for enzymatic biotinylation, C-terminal, kept
# T1 sequence (O43157 1543-2135 L1815E): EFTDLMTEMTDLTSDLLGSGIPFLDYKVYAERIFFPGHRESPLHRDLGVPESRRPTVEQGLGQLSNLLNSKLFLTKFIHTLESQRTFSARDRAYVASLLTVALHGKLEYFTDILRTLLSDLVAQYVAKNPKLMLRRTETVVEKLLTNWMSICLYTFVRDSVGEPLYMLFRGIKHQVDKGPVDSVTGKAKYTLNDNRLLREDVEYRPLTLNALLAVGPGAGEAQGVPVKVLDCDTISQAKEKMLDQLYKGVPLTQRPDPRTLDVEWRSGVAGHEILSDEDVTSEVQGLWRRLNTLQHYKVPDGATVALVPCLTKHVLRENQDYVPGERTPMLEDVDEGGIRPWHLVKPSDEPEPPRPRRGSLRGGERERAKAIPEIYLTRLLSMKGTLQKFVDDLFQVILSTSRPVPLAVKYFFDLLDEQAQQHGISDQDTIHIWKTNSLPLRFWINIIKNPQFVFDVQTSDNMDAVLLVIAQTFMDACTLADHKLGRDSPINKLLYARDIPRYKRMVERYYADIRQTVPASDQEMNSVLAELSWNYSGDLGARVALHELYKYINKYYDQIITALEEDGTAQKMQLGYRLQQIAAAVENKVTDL
# [3] = target: T2, Plexin-B1_(cyto) Thr1920Glu (human, UniProt O43157-1 1511-2135, Thr1920Glu, biotin, added enzymatically within the engineered C-terminal tag); test: SPR; Biacore T100, 25°C, standard buffer with 0.05% (v/v) Tween 20; biotinylated plexin constructs on streptavidin surfaces (500-5,000 RU); RhoGTPase injected, 120 nM to 500 µM; equilibrium responses fitted to a 1:1 Langmuir model; details: both partners purified
# T2 construct: human Plexin-B1, cytoplasmic region, residues 1511-2135; also called Thr1920Glu^Plex; site B mutant; source: HEK 293T cells, transfected, purified; not shown: engineered tag for enzymatic biotinylation, C-terminal, kept
# T2 sequence (O43157 1511-2135 T1920E): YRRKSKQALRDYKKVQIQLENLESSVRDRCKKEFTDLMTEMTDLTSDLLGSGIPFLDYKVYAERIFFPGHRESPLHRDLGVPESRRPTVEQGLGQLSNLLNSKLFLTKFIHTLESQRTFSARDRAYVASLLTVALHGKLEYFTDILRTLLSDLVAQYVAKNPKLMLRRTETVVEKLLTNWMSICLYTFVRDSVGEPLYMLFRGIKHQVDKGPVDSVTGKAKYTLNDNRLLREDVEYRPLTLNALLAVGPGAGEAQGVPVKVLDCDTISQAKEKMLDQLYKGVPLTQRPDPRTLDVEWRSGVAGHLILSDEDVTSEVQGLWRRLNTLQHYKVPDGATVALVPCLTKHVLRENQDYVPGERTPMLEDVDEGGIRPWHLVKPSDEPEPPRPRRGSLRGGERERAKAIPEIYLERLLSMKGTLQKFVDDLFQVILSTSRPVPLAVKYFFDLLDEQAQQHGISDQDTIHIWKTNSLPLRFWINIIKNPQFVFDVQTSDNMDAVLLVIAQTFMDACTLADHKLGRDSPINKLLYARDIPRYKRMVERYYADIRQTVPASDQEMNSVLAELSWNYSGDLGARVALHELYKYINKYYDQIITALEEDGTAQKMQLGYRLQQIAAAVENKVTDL
# [4] = target: T3, Plexin-B1_(cyto) Arg1921Ala (human, UniProt O43157-1 1511-2135, Arg1921Ala, biotin, added enzymatically within the engineered C-terminal tag); test: as above; details: both partners purified
# T3 construct: human Plexin-B1, cytoplasmic region, residues 1511-2135; also called Arg1921Ala^Plex; site B mutant; source: HEK 293T cells, transfected, purified; not shown: engineered tag for enzymatic biotinylation, C-terminal, kept
# T3 sequence (O43157 1511-2135 R1921A): as the sequence (O43157 1511-2135 T1920E) above, with E410T, R411A counted along it
# [5] = target: T4, Plexin-B1_(cyto) Leu2036Arg (human, UniProt O43157-1 1511-2135, Leu2036Arg, biotin, added enzymatically within the engineered C-terminal tag); test: as above; details: both partners purified
# T4 construct: human Plexin-B1, cytoplasmic region, residues 1511-2135; also called Leu2036Arg^Plex; site B mutant; source: HEK 293T cells, transfected, purified; not shown: engineered tag for enzymatic biotinylation, C-terminal, kept
# T4 sequence (O43157 1511-2135 L2036R): as the sequence (O43157 1511-2135 T1920E) above, with E410T, L526R counted along it
# [6] = target: T5, Plexin-B1_(cyto), wild type, biotinylated within an engineered C-terminal tag for SPR (human, UniProt O43157-1 1511-2135, biotin, added enzymatically within the engineered C-terminal tag); test: as above; details: both partners purified
# T5 construct: human Plexin-B1, cytoplasmic region, residues 1511-2135; also called Plexin-B1cyto WT; full-length Plexin-B1_(cyto); source: purified; mutant constructs for SPR: HEK 293T; not shown: engineered tag for enzymatic biotinylation, C-terminal, kept
# T5 sequence (O43157 1511-2135, change not shown): as the sequence (O43157 1511-2135 T1920E) above, with E410T counted along it
# [7] = target: Plexin-B1_(cyto) Arg1921Ala (human, UniProt O43157-1 1511-2135, Arg1921Ala, biotin, added enzymatically within the engineered C-terminal tag); test: SPR
# Target sequence in this assay (O43157 1511-2135 R1921A): as the sequence (O43157 1511-2135 T1920E) above, with E410T, R411A counted along it
# [8] = target: Plexin-B1_(cyto) Leu2036Arg (human, UniProt O43157-1 1511-2135, Leu2036Arg, biotin, added enzymatically within the engineered C-terminal tag); test: SPR
# Target sequence in this assay (O43157 1511-2135 L2036R): as the sequence (O43157 1511-2135 T1920E) above, with E410T, L526R counted along it
# [9] = target: Plexin-B1_(cyto) Thr1920Glu (human, UniProt O43157-1 1511-2135, Thr1920Glu, biotin, added enzymatically within the engineered C-terminal tag); test: SPR
# Target sequence in this assay (O43157 1511-2135 T1920E): as the sequence (O43157 1511-2135 T1920E) above
# Plexin-B1Δ2 Leu1815Glu [10] = target: Plexin-B1Δ2 Leu1815Glu (human, UniProt O43157-1 1543-2135, Leu1815Glu, biotin, added enzymatically within the engineered C-terminal tag); test: SPR; surface 5,000 RU
# Target sequence in this assay (O43157 1543-2135 L1815E): as the sequence (O43157 1543-2135 L1815E) above
Molecule,stoichiometry N [1],binding result (Plexin-B1Δ2 Leu1815Glu [2]),binding result [3],binding result [4],binding result [5],Kd [6],Kd [7],Kd [8],Kd [9],Kd (Plexin-B1Δ2 Leu1815Glu [10])
"Plexin-B1_(cyto) (entire cytoplasmic domain of human Plexin-B1, residues 1511-2135) (from UniProt O43157-1 1511-2135) (domain or fragment)",3,,,,,,,,,
B1,,binds,binds,binds,binds,22.9 µM,15.2 µM,16.5 µM,14.2 µM,486 µM
